Measurements published in the Human Domainome abundance scans (Beltran et al. 2025).
± gives the uncertainty stated by the source.

B1: Chromodomain-helicase-DNA-binding protein 4, residues 444 to 496; numbered along this chain, Q14839 (parent)
chain: EDDHHMEFCRVCKDGGELLCCDTCPSSYHIHCLNPPLPEIPNGEWLCPRCTCP
B2: Intersectin-1, residues 909 to 971; numbered along this chain, Q15811 (parent)
chain: QGEKVEGLQAQALYPWRAKKDNHLNFNKNDVITVLEQQDMWWFGEVQGQKGWFPKSYVKLISG

Variants of: B1
Assay: abundance fitness (aPCA) (normalised: wild type 0, dead -1); higher = more abundant; growth selection in yeast, the domain comes from the species named
Settings: Homo sapiens

Abundance fitness: each site, then its substitutions
D14: G 0.152 ± 0.073 | S 0.018 ± 0.047 | N -0.205 ± 0.062 | P -1.02 ± 0.094 | R -0.057 ± 0.052 | H -0.18 ± 0.059 | I -0.196 ± 0.055 | T -0.1 ± 0.047 | W -0.418 ± 0.063 | V -0.089 ± 0.053 | F -0.34 ± 0.061 | Q 0.209 ± 0.047 | E 0.223 ± 0.076 | Y -0.412 ± 0.07 | M -0.139 ± 0.054 | L 0.023 ± 0.04 | A -0.068 ± 0.075 | K 0.074 ± 0.063
D3: G -0.292 ± 0.057 | P -0.174 ± 0.064 | H 0.1 ± 0.075 | S 0.105 ± 0.049 | V -0.174 ± 0.05 | R 0.06 ± 0.038 | A -0.211 ± 0.045 | E -0.187 ± 0.057 | M 0.397 ± 0.065 | K 0.304 ± 0.073 | Y 0.319 ± 0.069 | C 0.27 ± 0.068 | W 0.201 ± 0.045 | L 0.342 ± 0.046 | I 0.393 ± 0.069 | T 0.277 ± 0.05 | Q 0.221 ± 0.062
E1: D -0.693 ± 0.1 | N 0.354 ± 0.27 | Y -0.175 ± 0.1 | Q -0.486 ± 0.16 | T -0.221 ± 0.19 | A -0.531 ± 0.13 | R -0.625 ± 0.28 | F -0.306 ± 0.38 | V -0.059 ± 0.054 | S -0.507 ± 0.18 | G -0.289 ± 0.046 | W -0.898 ± 0.43 | L -0.235 ± 0.078 | P -0.436 ± 0.22 | M 0.156 ± 0.28 | I -0.265 ± 0.35
E7: L -0.121 ± 0.042 | G -0.239 ± 0.085 | F -0.002 ± 0.06 | P -0.401 ± 0.052 | A -0.366 ± 0.07 | R -0.174 ± 0.069 | Q -0.224 ± 0.074 | V -0.205 ± 0.058 | C -0.15 ± 0.086 | M -0.433 ± 0.05 | D -0.048 ± 0.064 | H -0.22 ± 0.067 | T -0.618 ± 0.073 | I -0.481 ± 0.072 | N -0.664 ± 0.065 | S -0.364 ± 0.061 | K -0.492 ± 0.061 | W -0.599 ± 0.095 | Y -0.813 ± 0.055
C9: A -0.777 ± 0.11 | T -0.815 ± 0.061 | D -0.601 ± 0.11 | I -0.827 ± 0.083 | H -0.79 ± 0.064 | G -0.535 ± 0.094 | P -0.797 ± 0.052 | S -0.849 ± 0.068 | Y -0.979 ± 0.13 | Q -0.668 ± 0.07 | E -0.483 ± 0.1 | N -0.689 ± 0.054 | M -0.98 ± 0.1 | W -0.844 ± 0.15 | R -0.571 ± 0.066 | V -0.988 ± 0.11 | K -0.54 ± 0.051
G16: E 0.019 ± 0.087 | N -0.186 ± 0.078 | W -0.906 ± 0.12 | D -0.275 ± 0.057 | K -0.143 ± 0.054 | M -0.579 ± 0.089 | I -0.74 ± 0.093 | R -0.424 ± 0.073 | P -1.18 ± 0.084 | T -0.432 ± 0.056 | Q -0.559 ± 0.059 | A -0.558 ± 0.078 | V -0.842 ± 0.1 | C -0.985 ± 0.19 | L -0.7 ± 0.061 | S -0.279 ± 0.053 | Y -0.83 ± 0.11 | H -0.831 ± 0.055 | F -0.556 ± 0.099
V11: D -0.103 ± 0.069 | G -0.135 ± 0.057 | S -0.159 ± 0.049 | N -0.104 ± 0.078 | W -0.209 ± 0.071 | M -0.026 ± 0.061 | R 0.012 ± 0.044 | Q -0.037 ± 0.043 | I -0.074 ± 0.083 | Y -0.377 ± 0.073 | C -0.255 ± 0.067 | A -0.316 ± 0.065 | L -0.214 ± 0.048 | P -0.877 ± 0.07 | F -0.359 ± 0.067 | T -0.019 ± 0.05
H4: Y 0.078 ± 0.088 | R -0.04 ± 0.051 | M 0.107 ± 0.046 | F 0.301 ± 0.064 | D 0.125 ± 0.091 | S -0.409 ± 0.045 | K 0.119 ± 0.058 | P -0.294 ± 0.04 | I 0.025 ± 0.056 | W -0.126 ± 0.059 | C 0.032 ± 0.042 | E -0.126 ± 0.048 | L -0.162 ± 0.043 | T -0.004 ± 0.041 | A -0.14 ± 0.042 | Q -0.058 ± 0.055 | N 0.197 ± 0.058 | V -0.008 ± 0.042
K13: E 0.214 ± 0.061 | G -0.01 ± 0.057 | V -0.303 ± 0.046 | Y -0.375 ± 0.065 | P -1.08 ± 0.068 | N -0.199 ± 0.045 | M -0.2 ± 0.055 | D -0.243 ± 0.059 | C -0.126 ± 0.054 | T -0.134 ± 0.041 | W -0.139 ± 0.054 | S -0.101 ± 0.049 | H -0.286 ± 0.046 | L -0.129 ± 0.042 | R -0.087 ± 0.041 | A 0.085 ± 0.046 | Q -0.024 ± 0.043 | F -0.267 ± 0.054
H5: N -0.006 ± 0.077 | Y 0.097 ± 0.075 | C 0.068 ± 0.085 | T 0.019 ± 0.057 | V -0.135 ± 0.053 | L -0.305 ± 0.044 | K 0.199 ± 0.057 | M -0.12 ± 0.067 | E 0.116 ± 0.055 | Q 0.074 ± 0.067 | G 0.106 ± 0.044 | S -0.129 ± 0.048 | W 0.02 ± 0.054 | F 0.219 ± 0.098 | R 0.096 ± 0.043 | A 0.092 ± 0.047 | P -0.11 ± 0.051 | I 0.165 ± 0.084
F8: I -0.019 ± 0.05 | K -0.103 ± 0.062 | S -0.124 ± 0.045 | H -0.249 ± 0.043 | L -0.164 ± 0.051 | D -0.166 ± 0.06 | T -0.091 ± 0.055 | P -0.388 ± 0.045 | G 0.086 ± 0.071 | R -0.033 ± 0.047 | W -0.041 ± 0.062 | E 0.138 ± 0.082 | M -0.073 ± 0.063 | C -0.048 ± 0.059 | N -0.044 ± 0.069 | V 0.012 ± 0.047 | A -0.103 ± 0.061
C12: R -0.931 ± 0.045 | K -0.607 ± 0.07 | S -0.971 ± 0.058 | V -0.7 ± 0.063 | G -0.53 ± 0.046 | N -0.663 ± 0.051 | I -0.73 ± 0.048 | Q -0.928 ± 0.092 | M -1.19 ± 0.074 | P -1.12 ± 0.052 | A -0.74 ± 0.06 | H -0.83 ± 0.074 | F -0.896 ± 0.084 | E -0.124 ± 0.1 | T -0.769 ± 0.045 | L -1.11 ± 0.06 | D -0.749 ± 0.1 | W -0.822 ± 0.051 | Y -0.557 ± 0.089
M6: I -0.021 ± 0.048 | W -0.231 ± 0.04 | T 0.028 ± 0.047 | N -0.055 ± 0.062 | L -0.665 ± 0.041 | C -0.207 ± 0.05 | G -0.056 ± 0.049 | Q -0.508 ± 0.042 | R -0.477 ± 0.051 | S -0.147 ± 0.038 | F -0.204 ± 0.04 | A 0.023 ± 0.047 | H -0.713 ± 0.043 | D 0.023 ± 0.05
R10: N 0.003 ± 0.044 | I -0.014 ± 0.056 | G -0.349 ± 0.062 | A -0.17 ± 0.042 | Y -0.009 ± 0.064 | M -0.301 ± 0.074 | C 0.003 ± 0.077 | F 0.059 ± 0.043 | D -0.142 ± 0.087 | E -0.07 ± 0.09 | P -0.274 ± 0.049 | Q 0.086 ± 0.066 | W 0.122 ± 0.088 | T 0.028 ± 0.061 | V -0.056 ± 0.058 | H -0.137 ± 0.051 | K 0.124 ± 0.045 | L -0.021 ± 0.043
G15: W -0.317 ± 0.095 | D -0.274 ± 0.089 | N -0.179 ± 0.055 | C -0.508 ± 0.082 | V -0.115 ± 0.059 | F -0.263 ± 0.049 | S -0.061 ± 0.044 | L -0.486 ± 0.064 | E 0.057 ± 0.058 | P -0.154 ± 0.05 | T 0.012 ± 0.057 | K 0.08 ± 0.053 | M -0.102 ± 0.055 | Y -0.251 ± 0.076 | Q -0.126 ± 0.06 | I -0.397 ± 0.081
D2: A 0.05 ± 0.057 | N 0.091 ± 0.056 | M 0.278 ± 0.077 | R 0.033 ± 0.065 | G 0.26 ± 0.082 | V 0.217 ± 0.059 | H -0.036 ± 0.057 | F 0.463 ± 0.069 | S 0.202 ± 0.045 | W -0.334 ± 0.093 | Y 0.016 ± 0.076 | C -0.425 ± 0.13 | L 0.163 ± 0.05 | K 0.378 ± 0.043 | E 0.188 ± 0.073

Variants of: B2
Assay: as above
Settings: Homo sapiens

Abundance fitness, by site and new letter:
G63: D 0.07 ± 0.14 | A -0.058 ± 0.1 | P -0.01 ± 0.19 | I -0.151 ± 0.35 | T 0.032 ± 0.15 | L -0.077 ± 0.32 | C 0.026 ± 0.12 | W -0.276 ± 0.15 | R -0.029 ± 0.086 | Q -0.248 ± 0.38 | S -0.278 ± 0.15 | M 0.011 ± 0.22
S62: C -0.089 ± 0.16 | E -0.398 ± 0.38 | I -0.165 ± 0.3 | T -0.209 ± 0.19 | H -0.362 ± 0.23 | K -0.158 ± 0.28 | R -0.101 ± 0.11 | N -0.151 ± 0.22 | Y -0.626 ± 0.38 | A 0.062 ± 0.098 | V -0.253 ± 0.21 | F -0.63 ± 0.23 | G -0.129 ± 0.12 | W -0.075 ± 0.35 | P -0.21 ± 0.13 | D -0.041 ± 0.22 | L -0.084 ± 0.16 | Q 0.067 ± 0.45
I61: K -0.079 ± 0.16 | W -0.274 ± 0.12 | T -0.137 ± 0.26 | G -0.207 ± 0.069 | E -0.088 ± 0.13 | M -0.383 ± 0.18 | A -0.073 ± 0.097 | L 0.002 ± 0.078 | Y -0.223 ± 0.27 | S -0.301 ± 0.13 | F 0.08 ± 0.29 | H -0.438 ± 0.2 | R -0.155 ± 0.065 | D -0.159 ± 0.14 | V 0.095 ± 0.085
L60: F -0.536 ± 0.17 | R -0.119 ± 0.087 | N -0.254 ± 0.18 | V -0.06 ± 0.1 | C 0.029 ± 0.11 | S -0.18 ± 0.095 | K -0.1 ± 0.11 | T -0.162 ± 0.1 | P -0.152 ± 0.12 | Q 0.049 ± 0.12 | D -0.22 ± 0.23 | M -0.058 ± 0.2 | I -0.258 ± 0.25 | G -0.18 ± 0.056
